In the assay the test system is human NPC. The experiment in a line: Plating assay: NPC colony formation / quiescence. It counts as cell-based. As to conditions: fraction less than 30,000 Da after size-exclusion column. On the procedure:
Cells and Materials: Normal human NPC were obtained from Clonetics Corp (San Diego, Calif.), and grown in neural progenitor maintenance medium (Clonetics) with human recombinant basic fibroblast growth factor, epidermal growth factor, neural survival factors and antibiotics. These cells were derived as described previously (Svendsen (1998) J. Neurosci. Meth. 85:141-152).
Plating Assay: On day 0, HIV coat proteins at a concentration of 800 pM, or CSF at a concentration of 2% was added to cultures of NPC. Each protein or CSF sample was tested in triplicate. Cultures were incubated for seven days, and then cells were plated onto 24 well polyethylene-imine coated plates. The number of cell colonies having more than 20 cells with typical neuronal morphology was counted for each well after 7 days in culture. Determinations of colony inhibition for all proteins and CSF samples were done on each of three different lots of NPC. […]
The ability of HIV coat proteins to induce quiescence in human NPC was tested using NPC in the form of neurospheres. […] The number of colonies containing more than 20 cells with typical neuronal morphology was counted after 7 days in culture. […] None of the coat proteins induced cell death in NPC, as determined by trypan blue staining (>95% viability in all coat-protein treated cultures). […]
A general note: SEC sorts molecules by how far they enter the pores of the column.

B1: RANTES: inflammatory chemokine (protein, UniProt P13501 24-91, looked up)
C-C motif chemokine 5: SPYSSDTTPCCFAYIARPLPRAHIKEYFYTSGKCSNPAVVFVTRKNRQVCANPEKKWVREYINSLEMS
Take B1: the “effect on NPC in the plating assay” value is “inhibit NPC”.
